The text below walks through data of US20060257938A1, “Method of screening for drugs that block ligand binding to a lipid binding protein” (priority 2005, published 2006).

Where a chain is given by its changes, count along the chain named. Several values for one entry are separate records, joined by “and”; a condition that tells them apart may be missing. Equal values may be shown once.

The labels stand for the following.
B1: 82M1, 72A (protein, listed as Rattus norvegicus)
chain: AFDGTWKVDRNENYEKFMEKMGINVVKRKLGAHDNLKLTITQEGNKFTVKESSNFRNIDVVFELGVDFAYSAADGTELTGTMTMEGNKLVGKFKRVDNGKELIAVREISGNELIQTYTYEGVEAKRIFKKE
modifications: PEPTIDE (1)...(131) wild-type rat intestinal fatty acid binding protein
B2: 106F1, 72A (protein, listed as Rattus norvegicus)
chain: B1 chain with M82W, R106F
modifications: PEPTIDE (1)...(131) wild-type rat intestinal fatty acid binding protein
B3: 104S2, 72A (protein, listed as Rattus norvegicus)
chain: B1 chain with M82W, A104S
modifications: PEPTIDE (1)...(131) wild-type rat intestinal fatty acid binding protein
B4: 82Y2, 72A (protein, listed as Rattus norvegicus)
chain: B1 chain with M82Y
modifications: PEPTIDE (1)...(131) wild-type rat intestinal fatty acid binding protein
B5: 106D3, 72A (protein, listed as Rattus norvegicus)
chain: B1 chain with M82W, R106D
modifications: PEPTIDE (1)...(131) wild-type rat intestinal fatty acid binding protein
B6: 91A, 72A (protein, listed as Rattus norvegicus)
chain: B1 chain with M82W, G91A
modifications: PEPTIDE (1)...(131) wild-type rat intestinal fatty acid binding protein
B7: 104R, 72A (protein, listed as Rattus norvegicus)
chain: B1 chain with M82W, A104R
modifications: PEPTIDE (1)...(131) wild-type rat intestinal fatty acid binding protein
B8: 106A1, 72A (protein, listed as Rattus norvegicus)
chain: B1 chain with M82W, R106A
modifications: PEPTIDE (1)...(131) wild-type rat intestinal fatty acid binding protein
B9: 82V1, 72A (protein, listed as Rattus norvegicus)
chain: B1 chain with M82V
modifications: PEPTIDE (1)...(131) wild-type rat intestinal fatty acid binding protein
B10: 93L, 72A (protein, listed as Rattus norvegicus)
chain: B1 chain with M82W, F93L
modifications: PEPTIDE (1)...(131) wild-type rat intestinal fatty acid binding protein
B11: 106H2, 72A (protein, listed as Rattus norvegicus)
chain: B1 chain with M82W, R106H
modifications: PEPTIDE (1)...(131) wild-type rat intestinal fatty acid binding protein
B12: 104L1, 72A (protein, listed as Rattus norvegicus)
chain: B1 chain with M82W, A104L
modifications: PEPTIDE (1)...(131) wild-type rat intestinal fatty acid binding protein
B13: 104R1, 72A (protein, listed as Rattus norvegicus)
chain: B1 chain with M82W, A104R
modifications: PEPTIDE (1)...(131) wild-type rat intestinal fatty acid binding protein
B14: 104V1, 72A (protein, listed as Rattus norvegicus)
chain: B1 chain with M82W, A104V
modifications: PEPTIDE (1)...(131) wild-type rat intestinal fatty acid binding protein
B15: 104Y1, 72A (protein, listed as Rattus norvegicus)
chain: B1 chain with M82W, A104Y
modifications: PEPTIDE (1)...(131) wild-type rat intestinal fatty acid binding protein
B16: 106I3, 72A (protein, listed as Rattus norvegicus)
chain: B1 chain with M82W, R106I
modifications: PEPTIDE (1)...(131) wild-type rat intestinal fatty acid binding protein
B17: 93M, 72A (protein, listed as Rattus norvegicus)
chain: B1 chain with M82W, F93M
modifications: PEPTIDE (1)...(131) wild-type rat intestinal fatty acid binding protein
B18: 104T1, 72A (protein, listed as Rattus norvegicus)
chain: B1 chain with M82W, A104T
modifications: PEPTIDE (1)...(131) wild-type rat intestinal fatty acid binding protein
B19: 104N1, 72A (protein, listed as Rattus norvegicus)
chain: B1 chain with M82W, A104N
modifications: PEPTIDE (1)...(131) wild-type rat intestinal fatty acid binding protein
B20: 106C2, 72A (protein, listed as Rattus norvegicus)
chain: B1 chain with M82W, R106C
modifications: PEPTIDE (1)...(131) wild-type rat intestinal fatty acid binding protein

A short description of one assay: Probe fluorescence ratio response to linolenic acid relative to ADIFAB2. Format: binding. The conditions noted are these: response relative to ADIFAB2. Summed up: (§1)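 Fluorescently labeled rat intestinal FABP variants were read at two emission wavelengths, near the unbound maximum (about 420 to 480 nm) and the FFA-bound maximum (about 495 to 580 nm). R = Fλ1/Fλ2 after subtracting probe-free intensity; ΔR = R+agent − R0, normalized to ADIFAB2 (rI-FABP-L72A).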
As for B1, the “DR/DR LNA” value is 0.75.

Regarding B2, the “DR/DR LNA” value was determined as 0.71.

For B3, the “DR/DR LNA” value worked out at 1.54.

As for B4, the “DR/DR LNA” value came to 1.57.

In the case of B5, the “DR/DR LNA” value stood at 0.77.

B6: the “DR/DR LNA” value came out at 0.91.

Take B7: the “DR/DR LNA” value was 0.96 and 0.904.

Regarding B8, the “DR/DR LNA” value turned out to be 0.52.

Regarding B9, the “DR/DR LNA” value amounted to 0.76.

On to B10, for which the “DR/DR LNA” value is 0.81 and 0.680.

B11: the “DR/DR LNA” value amounted to 0.73.

On to B12, for which the “DR/DR LNA” value is reported as 0.42.

Take B13: the “DR/DR LNA” value was 1.13.

As to B14, the “DR/DR LNA” value amounted to 0.73.

For the molecule B15, the “DR/DR LNA” value came to 0.28.

In the case of B16, the “DR/DR LNA” value is 0.71.

Turning to B17, the “DR/DR LNA” value amounted to 1.19.

In the case of B18, the “DR/DR LNA” value stood at 1.07.

In the case of B19, the “DR/DR LNA” value was 1.06.

As to B20, the “DR/DR LNA” value was determined as 0.22.

The nature of the next assay: Probe fluorescence ratio response to arachidonic acid relative to ADIFAB2. Format: binding. The conditions noted are these: Arachidonic acid; response relative to ADIFAB2. Summed up: as §1
Turning to B1, the “DR/DR AA” value was 0.97.

As to B4, the “DR/DR AA” value came out at 0.65.

As for B6, the “DR/DR AA” value is recorded as 0.86.

For B9, the “DR/DR AA” value is recorded as 0.86.

As for B10, the “DR/DR AA” value is given as 0.36.

In the case of B17, the “DR/DR AA” value is on record as 0.93.

The assay is the same for the next values; noted with them: arachidonic acid; response relative to ADIFAB2.
In the case of B2, the “DR/DR AA” value was determined as 0.75.

As for B3, the “DR/DR AA” value was determined as 1.64.

As to B5, the “DR/DR AA” value stood at 0.66.

As for B7, the “DR/DR AA” value is 1.18 and 1.075.

Consider B8, for which the “DR/DR AA” value is 0.39.

In the case of B10, the “DR/DR AA” value is on record as 0.680.

Turning to B11, the “DR/DR AA” value stood at 0.75.

Turning to B12, the “DR/DR AA” value was 0.38.

Regarding B13, the “DR/DR AA” value came out at 1.14.

As for B14, the “DR/DR AA” value worked out at 0.63.

In the case of B15, the “DR/DR AA” value is 0.36.

For the molecule B16, the “DR/DR AA” value is 0.59.

With B18, the “DR/DR AA” value amounted to 1.01.

For B19, the “DR/DR AA” value amounted to 1.14.

For B20, the “DR/DR AA” value is 0.17.

The next assay is described as follows: Probe fluorescence ratio response to palmitic acid relative to ADIFAB2. Format: binding. The conditions noted are these: response relative to ADIFAB2. In outline: as §1
Regarding B1, the “DR/DR PA” value came to 0.54.

Take B2: the “DR/DR PA” value amounted to 0.38.

Turning to B3, the “DR/DR PA” value is 1.57.

B4: the “DR/DR PA” value is given as 0.88.

With B5, the “DR/DR PA” value is given as 0.26.

With B6, the “DR/DR PA” value turned out to be 0.80.

In the case of B7, the “DR/DR PA” value was 0.52 and 0.791.

On to B8, for which the “DR/DR PA” value is 0.16.

Turning to B9, the “DR/DR PA” value came out at 0.48.

For the molecule B10, the “DR/DR PA” value is 0.62 and 0.560.

Take B11: the “DR/DR PA” value is 0.33.

Consider B12, for which the “DR/DR PA” value is on record as 0.31.

Turning to B13, the “DR/DR PA” value is recorded as 1.00.

On to B14, for which the “DR/DR PA” value came out at 0.63.

As for B15, the “DR/DR PA” value was determined as 0.14.

Consider B16, for which the “DR/DR PA” value is 0.29.

Consider B17, for which the “DR/DR PA” value is recorded as 0.75.

Consider B18, for which the “DR/DR PA” value is 0.99.

As to B19, the “DR/DR PA” value is reported as 0.52.

With B20, the “DR/DR PA” value was 0.09.

Another assay in a line: Probe fluorescence ratio response to oleic acid relative to ADIFAB2. Format: binding. The settings on record: response relative to ADIFAB2. Summed up:
as §1
Regarding B1, the “DR/DR OA” value is listed as 0.92.

Take B2: the “DR/DR OA” value is 0.78.

Turning to B3, the “DR/DR OA” value is on record as 1.66.

Turning to B4, the “DR/DR OA” value amounted to 1.53.

With B5, the “DR/DR OA” value stood at 0.64.

For the molecule B6, the “DR/DR OA” value is listed as 0.85.

For B7, the “DR/DR OA” value was 0.88 and 0.957.

In the case of B8, the “DR/DR OA” value is given as 0.60.

Regarding B9, the “DR/DR OA” value came out at 0.65.

As for B10, the “DR/DR OA” value is 1.05 and 0.770.

Regarding B11, the “DR/DR OA” value came out at 0.82.

B12: the “DR/DR OA” value came out at 0.48.

With B13, the “DR/DR OA” value amounted to 1.20.

As to B14, the “DR/DR OA” value turned out to be 0.76.

In the case of B15, the “DR/DR OA” value worked out at 0.24.

On to B16, for which the “DR/DR OA” value was 0.72.

Take B17: the “DR/DR OA” value was 1.24.

As for B18, the “DR/DR OA” value is on record as 1.10.

On to B19, for which the “DR/DR OA” value came to 0.71.

Turning to B20, the “DR/DR OA” value is 0.22.

The next assay in a line: Probe fluorescence ratio response to linoleic acid relative to ADIFAB2. Format: binding. The conditions noted are these: response relative to ADIFAB2. Summed up: as §1
For B1, the “DR/DR LA” value is reported as 0.94.

In the case of B2, the “DR/DR LA” value is reported as 0.78.

As for B3, the “DR/DR LA” value is 1.71.

On to B4, for which the “DR/DR LA” value came out at 1.53.

For the molecule B5, the “DR/DR LA” value is on record as 0.80.

For the molecule B6, the “DR/DR LA” value turned out to be 0.83.

In the case of B7, the “DR/DR LA” value was 0.93 and 0.962.

As to B8, the “DR/DR LA” value was found to be 0.51.

Turning to B9, the “DR/DR LA” value is 0.74.

With B10, the “DR/DR LA” value was 1.03 and 0.670.

Turning to B11, the “DR/DR LA” value was found to be 0.78.

On to B12, for which the “DR/DR LA” value came to 0.39.

In the case of B13, the “DR/DR LA” value is 1.22.

With B14, the “DR/DR LA” value turned out to be 0.73.

For the molecule B15, the “DR/DR LA” value is given as 0.26.

For B16, the “DR/DR LA” value came out at 0.68.

In the case of B17, the “DR/DR LA” value was 1.28.

Take B18: the “DR/DR LA” value was 1.16.

As to B19, the “DR/DR LA” value was found to be 0.67.

Turning to B20, the “DR/DR LA” value was determined as 0.20.
